Reference: patent US20130217613A1 (MARQUETTE UNIVERSITY, published 2013)

Legend:
[1] = target: T1, His-tagged human Dpy-30 protein (full length) (human, UniProt Q9C005 1-99); assay: Ni-NTA pulldown of co-expressed proteins, GST western blot
T1 construct: range 1-99; also called His-Dpy-30; HDpy-30; not shown: His tag and vector-encoded residues of pET-28a

[2] = target: T2, His-tagged human Dpy-30 domain only (Dpy-30 45-99) (human, UniProt Q9C005 45-99); assay: as above
T2 construct: range 45-99; also called the Dpy-30 domain; Dpy-30 domain alone; not shown: His tag and vector-encoded residues of pET-28a
T2 sequence (Q9C005 45-99): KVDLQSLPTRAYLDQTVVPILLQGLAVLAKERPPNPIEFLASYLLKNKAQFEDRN

T1 sequence (Q9C005 whole entry): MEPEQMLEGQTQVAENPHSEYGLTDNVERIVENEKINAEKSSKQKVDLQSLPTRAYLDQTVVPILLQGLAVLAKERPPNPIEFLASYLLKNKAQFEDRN

B1: GST-tagged RSP3 280-316 with V300P mutation (other)
chain: PWLKEQAIGYLARGVVARRVPDKLVEDAAAALAANRS
notes: also called pRSP3V300P product; not shown: N-terminal GST tag (from pGEX-2T) and its junction
binding result [1]: no binding | binding result [2]: no binding
